Data: US9707267B2, “Beta-turn peptidomimetic cyclic compounds for treating dry eye” (Mimetogen Pharmaceuticals, Inc., priority 2008, dated 2017)

How the values were obtained:
[1] = test system: scopolamine induced dry eye model; test: Scopolamine induced dry eye model, Schirmer test (Example 3); assay type: in vivo, rat; details: single topical instillation of 1% on day eight; measured day thirteen
Description: Dry eye was induced using scopolamine (Sigma-Aldrich, St. Louis, Mo.), which was continuously and systemically delivered to the animals via an osmotic pump (2ML4 Alzet®; CedarLane, Burlington, Ontario) filled with scopolamine and implanted subcutaneously in the mid dorsal area between the scapulae. The wound was closed with 2-3 wound clips. After the surgery and again the next day, the animals were subcutaneously injected with Carprofen (0.5 mg/100 g) a non-steroidal anti-inflammatory drug and potent, long-acting analgesic in rodents. Animals were anaesthetized before the surgical pump implantation and before all clinical endpoint testing in an Isofluorane 99.9% USP (Abraxis Bioscience, Richmond Hill, Ontario) chamber. […]
Tear production was measured with Zone-Quick standardized phenol-red threads (FCI Ophthalmics, Marshfield Hills, Mass.) on animals lightly sedated with Isoflurane. […] The length of the stained moistened portion of the thread was measured in millimeters, using the scale provided with the threads to an accuracy of 1 mm. […]

[2] = Maximum solubility in topical dosing solution; assay type: physicochemical; details: buffered saline ~pH 7, isotonic; 25.0 mg per mL solution
Description: Compound D3 was prepared using a formulation designed by Mimetogen Pharmaceuticals, which is buffered saline ˜pH 7 (as determined by pH indicator strips, EMD Chemicals). Three topical dosing solutions were prepared as follows: • A topical dosing solution of 0.4% was prepared using 4.0 mg of compound dissolved in 845 μL, of sterile milliQ water. The solution was adjusted to ˜pH 7 with 6.5 μL of 1.0 N NaOH (VWR) using pH indicator strips and made isotonic (0.9% NaCl) by adding 148.5 μL of sterile 1.0 M NaCl. • A topical dosing solution of 1.0% was prepared using 10.0 mg of compound dissolved in 845 μL of sterile milliQ water. […] The solution was adjusted to ˜pH 7 with 20 μL of 1.0 N NaOH. The solution was made isotonic by adding 135 μL of sterile 1.0 M NaCl. All solutions were sonicated for 5 min. All compound D3 solutions were stored refrigerated (2-8° C.) for the duration of the study.

[3] = Scopolamine induced rat dry eye model, body weights (Example 5); assay type: in vivo; details: ± SD
Description: After the surgery and again the next day, the animals were subcutaneously injected with Caprofen (0.5 mg/100 g) a non-steroidal anti-inflammatory drug and potent, long-acting analgesic in rodents. Animals were weighed prior to pump implantation on Day−1, and then once a week for four weeks. This dosing regimen was reported to induce dry eye in rats (Viau S et al., “Time course of ocular surface and lacrimal gland changes in a new scopolamine-induced dry eye model,” Graefes Arch Clin Exp Ophthalmol., 246:857-867 (2008), the entire content of which is incorporated herein by reference).
There were no mortalities. […] Conjunctival congestion and conjunctival bloody discharge usually resolved the next day, but conjunctival swelling continued throughout the study. Pre-treatment, mean body weight was approximately 400 g, and was not statistically different among groups (p=0.3927) (Table 10). Mean body weight in the untreated control groups (G1) increased to approximately 575 g throughout the study. In the five groups receiving scopolamine (G2-G6), mean body weight increased to approximately 425 to 450 g. There was a statistically significant effect of treatment to decrease body weight starting on Day 14, continuing through Day 28 (p<0.0001 to 0.0426) (FIG. 24).

Molecule | aqueous tear production, Schirmer test (in words) [1] | maximum solubility [2] [%] | Body Weights ([3]; 0.00053% group, Day −1, pre-treatment) [g] | Body Weights ([3]; scopolamine + 0.00053% topical 1× daily Days 5-21, Day 7) [g] | Body Weights ([3]; scopolamine + 0.00053% topical 1× daily Days 5-21, Day 14) [g] | Body Weights ([3]; scopolamine + 0.00053% topical 1× daily Days 5-21, Day 20) [g] | Body Weights ([3]; scopolamine + 0.00053% topical 1× daily Days 5-21, Day 29) [g]
NCCCC[C@@H]1NC(=O)[C@H](CCC(=O)O)NC(=O)c2cc([N+](=O)[O-])ccc2OCCC(C(=O)NCC(=O)O)NC1=O (stereo partly shown) [Compound D3] | no effect on aqueous tear production | 2.5 |  |  |  |  | 
NGF: nerve growth factor (recombinant human), positive control |  |  | 417 ± 16 | 396 ± 20 | 399 ± 18 | 417 ± 16 | 438 ± 22
